Drawing on patent US20110195090A1, this text covers EC50 for six substances.

The first experiment deals with Bal gp120 (HIV-1 isolate Bal). Nature of the experiment: ELISA, bal gp120 coated, scFv. A general note: An ELISA detects its analyte on a solid surface through an enzyme-linked reagent.
On to mature scFv b12, for which the EC50 came to 1.3 nM.

With scFv b12 germline mutant A52P/G53Y, the EC50 was determined as 87.3 nM.

In turn, scFv b12 germline mutant G53Y yielded an EC50 greater than 1000 nM.

Another experiment addresses Bal gp120 (HIV-1 isolate Bal). The experiment can be described thus: ELISA, bal gp120 coated, scFv-Fc.
For b12 A52P/G53Y scFv-Fc (Fc fusion), the EC50 stood at 29.3 nM.

In the case of b12 G53Y scFv-Fc (Fc fusion), the EC50 is greater than 1000 nM.

As for mature b12 scFv-Fc (Fc fusion), the EC50 stood at 0.4 nM.

As usually defined, the EC50 is the concentration giving half of the maximal effect.
